Test results from PMC2742162.

Key:
pro-N-cadherin (human) = pro-N-cadherin (human) (UniProt P19022); test: co-IP
pro-E-cadherin (human) = pro-E-cadherin (human) (UniProt P12830); test: co-IP
Chain of UniProt P12830 (P12830 23-882): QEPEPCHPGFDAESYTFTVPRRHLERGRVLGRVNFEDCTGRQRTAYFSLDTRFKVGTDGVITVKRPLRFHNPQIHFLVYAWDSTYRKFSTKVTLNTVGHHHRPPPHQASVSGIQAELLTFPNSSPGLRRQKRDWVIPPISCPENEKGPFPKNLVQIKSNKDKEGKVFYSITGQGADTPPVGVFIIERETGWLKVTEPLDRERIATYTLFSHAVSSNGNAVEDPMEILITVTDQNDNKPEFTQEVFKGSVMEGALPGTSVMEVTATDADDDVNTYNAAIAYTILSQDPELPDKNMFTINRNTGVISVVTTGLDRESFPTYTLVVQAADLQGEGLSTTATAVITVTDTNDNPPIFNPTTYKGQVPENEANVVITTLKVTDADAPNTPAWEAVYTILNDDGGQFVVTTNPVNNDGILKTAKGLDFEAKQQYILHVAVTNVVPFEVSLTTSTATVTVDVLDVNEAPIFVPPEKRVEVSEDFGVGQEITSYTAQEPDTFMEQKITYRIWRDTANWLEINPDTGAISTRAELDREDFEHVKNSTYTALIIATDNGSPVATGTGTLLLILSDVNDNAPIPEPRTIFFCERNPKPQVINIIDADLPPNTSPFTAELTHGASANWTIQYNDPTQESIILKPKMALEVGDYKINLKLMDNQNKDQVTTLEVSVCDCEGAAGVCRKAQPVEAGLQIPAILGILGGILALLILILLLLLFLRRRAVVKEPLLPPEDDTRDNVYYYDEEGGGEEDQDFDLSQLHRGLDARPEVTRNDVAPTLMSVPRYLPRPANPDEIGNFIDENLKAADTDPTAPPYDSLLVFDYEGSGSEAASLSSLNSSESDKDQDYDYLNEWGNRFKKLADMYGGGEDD

Chain of α-catenin (P35221 whole entry): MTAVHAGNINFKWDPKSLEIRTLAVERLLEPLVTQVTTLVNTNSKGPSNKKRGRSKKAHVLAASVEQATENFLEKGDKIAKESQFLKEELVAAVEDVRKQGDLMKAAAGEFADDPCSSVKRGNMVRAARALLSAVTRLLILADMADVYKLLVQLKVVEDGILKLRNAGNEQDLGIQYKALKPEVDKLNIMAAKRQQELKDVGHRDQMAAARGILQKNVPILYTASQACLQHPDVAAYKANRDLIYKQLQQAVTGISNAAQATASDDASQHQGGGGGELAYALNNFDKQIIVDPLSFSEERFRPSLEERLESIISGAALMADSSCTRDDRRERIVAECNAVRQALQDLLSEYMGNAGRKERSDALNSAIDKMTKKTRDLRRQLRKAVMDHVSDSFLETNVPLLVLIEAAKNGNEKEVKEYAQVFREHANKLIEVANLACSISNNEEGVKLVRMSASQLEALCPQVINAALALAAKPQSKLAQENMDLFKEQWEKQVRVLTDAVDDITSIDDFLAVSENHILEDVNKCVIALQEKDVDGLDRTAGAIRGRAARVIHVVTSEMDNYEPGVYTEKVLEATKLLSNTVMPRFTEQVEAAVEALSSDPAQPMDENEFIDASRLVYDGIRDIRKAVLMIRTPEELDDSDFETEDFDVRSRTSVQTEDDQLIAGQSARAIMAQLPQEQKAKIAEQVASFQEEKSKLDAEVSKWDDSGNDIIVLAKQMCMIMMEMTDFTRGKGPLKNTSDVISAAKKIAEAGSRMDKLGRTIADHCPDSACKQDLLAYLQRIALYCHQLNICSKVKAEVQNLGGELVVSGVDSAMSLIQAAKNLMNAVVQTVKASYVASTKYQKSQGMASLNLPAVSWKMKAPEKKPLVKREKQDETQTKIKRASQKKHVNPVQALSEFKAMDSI
Chain of UniProt P19022 (P19022 26-906): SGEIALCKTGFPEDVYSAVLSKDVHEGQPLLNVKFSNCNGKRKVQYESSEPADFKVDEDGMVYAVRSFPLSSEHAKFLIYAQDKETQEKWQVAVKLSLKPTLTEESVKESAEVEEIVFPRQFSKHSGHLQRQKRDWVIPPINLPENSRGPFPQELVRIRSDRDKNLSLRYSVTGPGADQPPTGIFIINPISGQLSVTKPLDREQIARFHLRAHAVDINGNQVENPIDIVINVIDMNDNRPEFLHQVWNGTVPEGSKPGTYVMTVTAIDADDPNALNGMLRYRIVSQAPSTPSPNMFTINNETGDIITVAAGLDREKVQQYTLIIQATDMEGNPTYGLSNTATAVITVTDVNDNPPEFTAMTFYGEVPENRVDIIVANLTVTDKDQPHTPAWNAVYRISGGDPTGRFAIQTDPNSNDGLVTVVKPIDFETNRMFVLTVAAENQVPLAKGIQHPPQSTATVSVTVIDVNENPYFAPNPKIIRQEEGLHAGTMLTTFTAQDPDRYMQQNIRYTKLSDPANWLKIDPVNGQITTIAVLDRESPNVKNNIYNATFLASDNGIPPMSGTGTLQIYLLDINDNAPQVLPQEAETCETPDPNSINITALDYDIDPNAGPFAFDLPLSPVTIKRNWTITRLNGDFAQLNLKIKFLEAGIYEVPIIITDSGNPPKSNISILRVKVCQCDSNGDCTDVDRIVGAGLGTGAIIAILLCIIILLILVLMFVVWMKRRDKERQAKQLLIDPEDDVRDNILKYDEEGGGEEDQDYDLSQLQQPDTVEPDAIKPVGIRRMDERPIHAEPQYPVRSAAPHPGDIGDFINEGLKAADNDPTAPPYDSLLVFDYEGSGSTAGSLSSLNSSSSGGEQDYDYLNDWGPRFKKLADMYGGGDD

Question: How did the percent of pro-cadherin molecules in a complex with α-catenin (pro-N-cadherin (human)) turn out when “α-catenin (from UniProt P35221 1-906) (natural protein)” was run?
Answer: The percent of pro-cadherin molecules in a complex with α-catenin was 92%.

Question: And the percent of pro-cadherin molecules in a complex with α-catenin (pro-E-cadherin (human))?
Answer: Its percent of pro-cadherin molecules in a complex with α-catenin is 81%.
